Experimental data reported in patent publication US20140371143A1.

Target: RANKL ectodomain (eRANKL, residues 157-316) of rat (rat) (UniProt Q9ESE2)
Experiment: crystal structure of the complex

Chain of UniProt Q9ESE2 (Q9ESE2 157-316 limits assumed): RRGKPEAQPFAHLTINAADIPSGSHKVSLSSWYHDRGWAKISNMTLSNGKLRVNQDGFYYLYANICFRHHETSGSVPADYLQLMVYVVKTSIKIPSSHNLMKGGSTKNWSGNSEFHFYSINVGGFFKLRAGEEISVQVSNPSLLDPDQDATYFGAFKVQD

Substance: RANK ectodomain (eRANK, residue 32-201) of rat (receptor)
- reduction of solvent accessible surface area on binding: 7680 Å^2
- reduction of solvent accessible surface area on binding, share of the total accessible surface area of unbound receptors and ligands: 15.4%
